Sequences and labels used below:
B1: CPEB3 Ribozyme (parent)
chain: UAACAGGGGGCCACAGCAGAAGCGUUCACGUCGCAGCCCCUGUCAGAUUCUGGUGAAUCUGCGAAUUCUGCUGUAUAUCUC

In the data set the parent is B1. As to the kind of experiment: self-cleavage, relative activity (ratio to wild type); higher = more cleavage; in vitro, sequencing. In outline:
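Barcoded CPEB3 ribozyme mutants, produced by rounds of error-prone PCR, self-cleaved while being transcribed with T7 RNA polymerase for 5 hours at 37°C and during a subsequent 15 min DNase I step before EDTA was added. Sequencing of template-switched cDNA on Illumina gave cleaved and total reads, and DNA sequencing assigned barcodes to variants. Each variant's relative activity is its cleaved/total read fraction divided by the unmutated ribozyme's fraction, averaged across three batches. A variant needed a minimum of 5 reads.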
Take UAACAGGGGGCCAGAGCAGAAGCGUUCACGUCGCAGCCCCUGUCAGAUUCCGGUGAAUCUGCGAAUUCUGCUGUAUAUCUC: the self-cleavage was 1.16. As for UAACAGGGGGCCAUAGCAGAAGCGUUCACGUAGCAGCCCCUGUCAGAUUCUGGUGAAUCUGCGAAUUCUGCUGUAUAUCUC, the self-cleavage was 0.2. In the case of UAACAGGGGGCCAUAGCAGAAGCGUUCACGUGGCAGCCCCUGUCAGAUUCUGGUGAAUCUGCGAAUUCUGCUGUAUAUCUC, the self-cleavage amounted to 0.1. Then UAACAGGGGGCCAGAGCAGAAGCGUUCACGUCGCAGCCCCUGUCAGAUUCUGGCGAAUCUGCGAAUUCUGCUGUAUAUCUC, with 1.03. Then UAACAGGGGGCCAUAGCAGAAGCGUUCACGUCGCAGCCCCUGUCAGUUUCUGGUGAAUCUGCGAAUUCUGCUGUAUAUCUC, with 1.21; and UAACAGGGGGCCAUAGCAGAAGCGUUCACGUCGCAGCCCCUGUCAGGUUCUGGUGAAUCUGCGAAUUCUGCUGUAUAUCUC, with 0.7; and UAACAGGGGGCCAUAGCAGAAGCGUUCAUGUCGCAGCCCCUGUCAGAUUCUGGUGAAUCUGCGAAUUCUGCUGUAUAUCUC, with 0.72. Then UAACAGGGGGCCAGAGCAGAAGCGUUCACGUCGCAGCCCCUGUCAGAUUCUGGUGAAUCUGCGAAUUCUGCUGCAUAUCUC, with 0.89; and UAACAGGGGGCCAUAGCAGAAGCGUUCACGUCGCAGCCCCUGUCAGAUUCUGGUGAAUAUGCGAAUUCUGCUGUAUAUCUC, with 0.28; and UAACAGGGGGCCAGAGCAGAAGCGUUCACGUCGCAGCCCCUGUCAGAUUCUGGUGAAUCUGCGAUUUCUGCUGUAUAUCUC, with 0.26. Regarding UAACAGGGGGCCAGAGCAGAAGCGUUCACGUCGCAGCCCCUGUCAGAUUCUGGUGAAUCUGCGACUUCUGCUGUAUAUCUC, the self-cleavage amounted to 0.32. As for UAACAGGGGGCCAGAGCAGAAGCGCUCACGUCGCAGCCCCUGUCAGAUUCUGGUGAAUCUGCGAAUUCUGCUGUAUAUCUC, the self-cleavage is 0.17. Take UAACAGGGGGCCAGAGCAGAUGCGUUCACGUCGCAGCCCCUGUCAGAUUCUGGUGAAUCUGCGAAUUCUGCUGUAUAUCUC: the self-cleavage turned out to be 0.16. Turning to UAACAGGGGGCCAGAGCAGAGGCGUUCACGUCGCAGCCCCUGUCAGAUUCUGGUGAAUCUGCGAAUUCUGCUGUAUAUCUC, the self-cleavage worked out at 0.45.

Consider UAACAGGGGGCCAUUGCAGAAGCGUUCACGUCGCAGCCCCUGUCAGAUUCUGGUGAAUCUGCGAAUUCUGCUGUAUAUCUC, for which the self-cleavage worked out at 1.07.

With UAACAGGGGGCCAUGGCAGAAGCGUUCACGUCGCAGCCCCUGUCAGAUUCUGGUGAAUCUGCGAAUUCUGCUGUAUAUCUC, the self-cleavage was 1.13.

Regarding UAACAGGGGGCCAGAGCAGAAGCGUUCACGUCGCAGCCCCUGUCAGAUUCUGGUGAAUCUGCGAACUCUGCUGUAUAUCUC, the self-cleavage came to 0.29. Then UAACAGGGGGCCAAAGCAGAAGCGUUCACGUCGCAGCCCCUGUCAGAUUCUGGUGAAUCUGCGAAUUCUGCUGUAUACCUC, with 1.07; and UAACAGGGGGCCAUAGCAGAAGCGUUCACGUCGCAGCCACUGUCAGAUUCUGGUGAAUCUGCGAAUUCUGCUGUAUAUCUC, with 0.55; and UAACAGGGGGCCAAAGCAGAAGCGUUCACGUCGCAGCCCCUGUCAGAUUCUGGUGAAUCUGCGAAUUCCGCUGUAUAUCUC, with 0.4. In the case of UAACAGGGGGCCAAAGCAGAAGCGUUCACGUCGCAGCCCCUGUCAGAUUCUGGUGAAUCUGCGAAUUCAGCUGUAUAUCUC, the self-cleavage came to 0.48.

Consider UAACAGGGGGCCAAAGCAGAAGCGUUCACGUCGCAGCCCCUGUCAGAUUCUGGUGAAUCUGCGAAUUCUGCUGUACAUCUC, for which the self-cleavage came to 0.94. Then UAACAGGGGGCCAGAGCAGAAGCGUUCACGUCGCAGCCCCUGUCAGAUUCUGGUGAAUCUGCGAAUUCUGCCGUAUAUCUC, with 0.69. To UAACAGGGGGCCAUAGCAGAAGCGUUCACGUCGCAGCCCCUGUCAGAUUCUGGUGAAUCUGCGUAUUCUGCUGUAUAUCUC belongs 0.61.

Regarding UAACAGGGGGCCAUAGCAGAAGCGUUCACGUCGCAGCCCCUGUCAGAUUCUGGUGAAUCUGCGGAUUCUGCUGUAUAUCUC, the self-cleavage stood at 1.17. As to UAACAGGGGGCCAAAGCAGAAGCGUUCACGUCGCAGCCCCUGUCAGAUUCUGGUGAAUCUGCGAAUCCUGCUGUAUAUCUC, the self-cleavage came to 0.14. Then UAACAGGGGGCCAUAGUAGAAGCGUUCACGUCGCAGCCCCUGUCAGAUUCUGGUGAAUCUGCGAAUUCUGCUGUAUAUCUC, with 0.87; and UAACAGGGGGCCAGAGCAGAAGCGUUCACGUCGCAGCCCCUGUCAGAUUCUGGUGAAUCUACGAAUUCUGCUGUAUAUCUC, with 0.42.

In the case of UAACAGGGGGCCAGAGCAGAAGCGUUCACGUCGCAGCCCCUGUCAGAUUCUGGUGGAUCUGCGAAUUCUGCUGUAUAUCUC, the self-cleavage turned out to be 1. For the variant UAACAGGGGGCCAUAGCAGAAGCGUUCACGUCGCAGCCCCUGUCAGAUUCUGGUGAAUCUGCGAAUUCUGCUGUAUCUCUC, the self-cleavage was 0.53. Then UAACAGGGGGCCAUAGCAGAAGCGUUCACGUCGCAGCCCCUGUCAGAUUCUGGUGAAUCUGCGAAUUCUGCUGUAUGUCUC, with 1.34.

For UAACAGGGGGCCAGAGCAGAAGCGUUCAAGUCGCAGCCCCUGUCAGAUUCUGGUGAAUCUGCGAAUUCUGCUGUAUAUCUC, the self-cleavage came out at 0.87. Regarding UAACAGGGGGCCAUAGCAGAAGCGUUCACGUCGCAGCACCUGUCAGAUUCUGGUGAAUCUGCGAAUUCUGCUGUAUAUCUC, the self-cleavage worked out at 0.14.

For the variant UAACAGGGGGCCAGAGCAGAAGCGUUCACGUCGCGGCCCCUGUCAGAUUCUGGUGAAUCUGCGAAUUCUGCUGUAUAUCUC, the self-cleavage stood at 1.24. On to UAACAGGGGGCCAUAGCAGAGGCGUUCACGUCGCAGCCCCUGUCAGAUUCUGGUGAAUCUGCGAAUUCUGCUGUAUAUCUC, for which the self-cleavage turned out to be 0.78. To UAACAGGGGGCCAUAGCAGAAGCGUUCACGUCGCAGCCCCUGUCAGAUUCUGGUGAAUCUGCGAAUUCUGCUGUAUAUAUC belongs 1.29; to UAACAGGGGGCCAUAGCAGAAGGGUUCACGUCGCAGCCCCUGUCAGAUUCUGGUGAAUCUGCGAAUUCUGCUGUAUAUCUC, 0.12; to UAACAGGGGGCCAUAGCAGAAGCGUUCACGUCGCAGCCCUUGUCAGAUUCUGGUGAAUCUGCGAAUUCUGCUGUAUAUCUC, 1.07.

With UAACAGGGGGCCAUAGCAGAAGCGUUCACGUCGCAGCCCAUGUCAGAUUCUGGUGAAUCUGCGAAUUCUGCUGUAUAUCUC, the self-cleavage was 0.24. Take UAACAGGGGGCCAGAGCAGAAGCGUUCACGUCGCAGCCCCUGUCAGACUCUGGUGAAUCUGCGAAUUCUGCUGUAUAUCUC: the self-cleavage worked out at 0.47. Consider UAACAGGGGGCCAAAGCAGAAGCGUUCACGUCGCAGCCCCUGUCAGAUUCUGGUGAAUCUGCGAAUUCUGCUGCAUAUCUC, for which the self-cleavage came to 1.23.

In the case of UAACAGGGGGCCAAAGCAGAAGCGUUCACGUCGCAGCCCCUGUCAGAUUCUGGUGAAUCUGCGAAUUCUGCUGAAUAUCUC, the self-cleavage worked out at 1.25.

Consider UAACAGGGGGCCAUAGCAGAAGCGUUCACGUCGCGGCCCCUGUCAGAUUCUGGUGAAUCUGCGAAUUCUGCUGUAUAUCUC, for which the self-cleavage amounted to 1.38. With UAACAGGGGGCCAUAGCAGAAGCGUUCACGUCGCUGCCCCUGUCAGAUUCUGGUGAAUCUGCGAAUUCUGCUGUAUAUCUC, the self-cleavage turned out to be 1.04. To UAACAGGGGGCCAUAGCAGAAGCGUUCACGUCGCCGCCCCUGUCAGAUUCUGGUGAAUCUGCGAAUUCUGCUGUAUAUCUC belongs 1.11; to UAACAGGGGGCCAUAGCGGAAGCGUUCACGUCGCAGCCCCUGUCAGAUUCUGGUGAAUCUGCGAAUUCUGCUGUAUAUCUC, 0.82; to UAACAGGGGGCCAUAGCUGAAGCGUUCACGUCGCAGCCCCUGUCAGAUUCUGGUGAAUCUGCGAAUUCUGCUGUAUAUCUC, 0.44. To UAACAGGGGGCCAAAGCAGAAGCGUUCACGUCGCAGCCCCUGUCAGAUUCUGGUGAAUCUGCGAAUUCUGCCGUAUAUCUC belongs 1.22; to UAACAGGGGGCCAGAGCAGAAGCGUUCACGUCGCAGCCCCCGUCAGAUUCUGGUGAAUCUGCGAAUUCUGCUGUAUAUCUC, 1.14; to UAACAGGGGGCCAUAGCAGAAGCGUUCACGUCGCAGCCCCUGUCAGAUUCUGGUGAGUCUGCGAAUUCUGCUGUAUAUCUC, 1.1. To UAACAGGGGGCCAUAGCAGAAGCGUUCACGUCGCAGCCCCUGUCAGAUUCUGGUGACUCUGCGAAUUCUGCUGUAUAUCUC belongs 0.66; to UAACAGGGGGCCAUAGCAGAAGCGUUCACGUCGCAGCCCCUGUCAGAUUCUGGUGAAUCUGCGAUUUCUGCUGUAUAUCUC, 0.34; to UAACAGGGGGCCAUAGCAGAAGCGUUCACGUCGCAGCCCCUGUCAGAUUCUGGUGGAUCUGCGAAUUCUGCUGUAUAUCUC, 1.23. On to UAACAGGGGGCCAUAGCAGAAGCGUUCACGUCGCAGCCCCUGUCAGAUUCUGGUGUAUCUGCGAAUUCUGCUGUAUAUCUC, for which the self-cleavage came out at 0.5. As for UAACAGGGGGCCAGAGCAGUAGCGUUCACGUCGCAGCCCCUGUCAGAUUCUGGUGAAUCUGCGAAUUCUGCUGUAUAUCUC, the self-cleavage is 0.26.

For the variant UAACAGGGGGCCAGAGCAGAAGCGUUCACGUCGCAGCCCCUGUCAGAUCCUGGUGAAUCUGCGAAUUCUGCUGUAUAUCUC, the self-cleavage amounted to 0.33. Then UAACAGGGGGCCAGAGCAGAAGCGUUCACGUCGCAGCCCCUGUCAGAUUCUGAUGAAUCUGCGAAUUCUGCUGUAUAUCUC, with 1.19; and UAACAGGGGGCCAGGGCAGAAGCGUUCACGUCGCAGCCCCUGUCAGAUUCUGGUGAAUCUGCGAAUUCUGCUGUAUAUCUC, with 0.79. With UAACAGGGGGCCAGCGCAGAAGCGUUCACGUCGCAGCCCCUGUCAGAUUCUGGUGAAUCUGCGAAUUCUGCUGUAUAUCUC, the self-cleavage is 0.37. Then UAACAGGGGGCCAUAGCAGAAGCGUUCUCGUCGCAGCCCCUGUCAGAUUCUGGUGAAUCUGCGAAUUCUGCUGUAUAUCUC, with 1.21. As to UAACAGGGGGCCAUAGCAGAAGCGUUCGCGUCGCAGCCCCUGUCAGAUUCUGGUGAAUCUGCGAAUUCUGCUGUAUAUCUC, the self-cleavage stood at 0.76.

Regarding UAACAGGGGGCCAUAGCAGUAGCGUUCACGUCGCAGCCCCUGUCAGAUUCUGGUGAAUCUGCGAAUUCUGCUGUAUAUCUC, the self-cleavage was found to be 0.4. To UAACAGGGGGCCAUAGCAGGAGCGUUCACGUCGCAGCCCCUGUCAGAUUCUGGUGAAUCUGCGAAUUCUGCUGUAUAUCUC belongs 1.19; to UAACAGGGGGCCAGAGCAGAAGCGUUCACGUCGCAGCCCGUGUCAGAUUCUGGUGAAUCUGCGAAUUCUGCUGUAUAUCUC, 0.1.

Consider UAACAGGGGGCCAUAGCAGAAGCGUUCACGUCGCAGCCCCUGUCAGAUUCUGGUGAAUCUGCGAAUUCUGCUGUAUAUCUC, for which the self-cleavage came out at 1.15.

UAACAGGGGGCCAGAGCAGAAGCGUUCACGUCGCAGCCCCUGUCAGAUUCUGGUGAAUCUGCGAAUUCUGCUGUAUAUCUC: the self-cleavage was 1.08.

With UAACAGGGGGCCAUAGCAGAAGCGUUCACGUCGCAGCCCCUGUCAGAUUCUGGUGAAUCUGCGAAUUCUGCUGUGUAUCUC, the self-cleavage stood at 1.23. For the variant UAACAGGGGGCCAUAGCAGAAGCGUUCACGUCGCAGCCCCUGUCAGAUUCUGGUGAAUCUGCGAAUUCUGCUGUUUAUCUC, the self-cleavage is 1.23.

Source of the values: the RNAGym collection of RNA variant scans (doi:10.1093/nar/gkz1192).
